In patent US6924101B2, “Methods for identifying anti-microbial agents” (priority 1997, dated 2005):

Key:
E. coli DH5α [1] = assay: Colony formation on M9 agar with or without 1 mM IPTG (FIG. 6); type: cell-based; conditions: M9 agar containing 1 mM IPTG vs without IPTG
Experimental: FIG. 6 is a bar graph showing the effect of inducing lepB, ddlB, viaA or orf1 antisense RNA expression on colony formation in E. coli DH5α. Striped bars indicate colony forming units (CFUs) per ml of culture for strains grown on semi-solid media in the absence of the inducer IPTG. Solid bars indicate CFUs/ml for strains grown in the presence of IPTG.
Cell proliferation for each strain was measured by diluting overnight cultures 1:10^6 into M9 medium. After growth to an OD450 of 0.2, aliquots of each culture were plated on M9 agar without IPTG or M9 agar containing 1 mM IPTG. […] Colony formation by cells carrying pJB57 was inhibited more than 100 fold. The colony formation of strains carrying pJB59 was inhibited more than 1000 fold.

E. coli DH5α [2] = assay: Growth curves (OD450) in liquid LB media with or without 1 mM IPTG (FIG. 7); type: cell-based
Experimental: FIG. 7 is a graph showing growth curves of E. coli DH5α containing pJB37, pJB57 and pJB59 in liquid media in the presence and absence of IPTG.
Inhibition of bacterial growth after IPTG induction. Growth curves were carried out by back diluting cultures 1:20 into fresh media with or without 1 mM IPTG and measuring the OD450 every 30 minutes (min). To study transcriptional induction in exponential phase, cultures were diluted 1:10^6 or as indicated. The viability (CFU/ml) was determined over time by plating aliquots of the culture on agar with or without IPTG.
Kinetics of inhibition during exponential growth by antisense RNA. The kinetics of antisense inhibition was examined for strains carrying pJB37, pJB53, pJB57 or pJB59. Overnight cultures of each strain were diluted 1:20 into LB media containing 1 mM IPTG or LB media without IPTG. The OD450 was then measured on the liquid cultures. […] After induction of antisense RNA expression, a few generations of cell division presumably are required in order to dilute endogenous gene product present at the initiation of induction.

E. coli DH5α [3] = assay: Viability (CFUs/ml) over time after induction of antisense RNA expression (FIG. 8); type: cell-based
Experimental: FIG. 8 is a graph showing the viability of DH5α strains at various times after induction of antisense RNA expression. Strains contained the following plasmids: squares: pJB37; diamonds: pJB53; circles: pJB57; and triangles; pJB59.
Inhibition of viability by antisense RNA. The viability over time of the four strains expressing the antisense RNAs described above was also examined. Overnight cultures of each strain were diluted 1:100 into LB medium containing 1 mM IPTG. Aliquots of each culture were plated on LB agar containing ampicillin at intervals thereafter to determine CFUs/ml.

E. coli DH5α [4] = assay: Effect of different concentrations of inducer IPTG on viability (FIG. 9); type: cell-based
Experimental: FIG. 9 is a graph showing the effect of varying concentrations of inducer on the viability of DH5α containing pJB37 (panel A) or pJB53 (panel B).
Effect of different concentrations of transcriptional inducer. Experiments were carried out to determine the effect of different concentrations of the inducer IPTG on bacterial growth and viability with the two clones where antisense RNA is bacteriocidal. Overnight cultures were diluted 1:100 into LB media containing 0, 10, 100 500 or 1000 micro molar (μM) IPTG. At the time of induction and every 2 hours thereafter, aliquots were plated on LB/ampicillin agar to determine CFUs/ml.

Salmonella typhimurium = assay: Growth of transformants plated on LB with or without 1 mM IPTG; type: cell-based
Experimental: In order to examine the effectiveness of the antisense RNAs in a related species, Salmonella typhimurium was transformed with pJB37 or pJB53. The ampicillin-resistant transformants were plated on LB with or without 1 mM IPTG.

JRG58201 = assay: Growth and viability of ampG null strain after IPTG induction; type: cell-based, E. coli
Description: Lethality of pJB59 antisense RNA requires inhibition of orf1. The polycistronic mRNA that encodes ampG in E. coli has an upstream ORF, termed orf1 herein: The antisense RNA made by pJB59 is complementary to orf1. In order to determine whether translational inhibition of orf1 or of ampG was the cause of the lethality of pJB59 antisense RNA, pJB59 was transformed into the ampG null strain, JRG58201. Jacobs, C., et al, EMBO J. 13:4684-4694 (1993). JRG58201 has a defect in the ampG gene but has no known defect in the orf1 gene.

B1: pJB53: pLEX5BA with a 714 bp PstI/HindIII fragment of viaA in antisense orientation; expresses antisense RNA (SEQ ID NO: 4) (nucleic acid)
antisense: CUGCAGGCUGAGGUGUUGCCCUUACAAAUGCAACAACGACAUGGAUUACAACACCCUCAUAAACAAAGGGCAAUCACCUGAUCUAAGCUCUUACCUAUGACAGUGAUAGGUUAUGCCUUUUACUCGACUUUUGCACUGACUGAAAAGGACAAAUUAAUGUUAAAAAAGAUACUUUUACUGGCUCUGCUUCCUGCAAUCGCCUUCGCAGAGGAACUUCCUGCUCCAGUAAAAGCGAUUGAAAAACAGGGCAUUACAAUCAUCAAAACAUUCGAUGCCCCCGGAGGAAUGAAAGGUUAUCUCGGAAAGUAUCAGGAUAUGGGCGUCACCAUCUACCUGACUCCAGAUGGUAAGCACGCUAUCUCUGGUUACAUGUACAACGAGAAAGGUGAAAACCUGAGUAACACACUUAUCGAAAAAGAAAUUUACGCACCAGCCGGACGCGAAAUGUGGCAACGGAUGGAACAAUCCCACUGGCUCCUCGACGGUAAAAAAGAUGCGCCGGUCAUUGUCUACGUCUUCGCCGAUCCGUUCUGCCCAUAUUGUAAACAGUUCUGGCAGCAGGCGCGCCCGUGGGUAGAUUCUGGCAAAGUGCAAUUAAGAACAUUGUUGGUUGGGGUUAUCAAGCCAGAAAGCCCGGCGACAGCAGCGGCAAUUCUUGCCUCCAAAGAUCCCGCAAAAACCUGGCAACAAUAUGAAGCCUCUGGUGGCAAGCUU
modifications: expressed from plasmid pLEX5BA; Escherichia coli viaA
How did the “effect on cell growth or colony formation when induced with IPTG” value (E. coli DH5α [1]) turn out when B1 was run?
Its value is “unable to form colonies”.

What about the “time at which cell mass began to decrease” value (E. coli DH5α [2]; LB, 1 mM IPTG) of the same molecule?
Its value is “about 4 hours”.

What about the “cell lysis, microscopic examination” value (E. coli DH5α [2]; after induction of antisense RNA) of the same molecule?
Its value is “did not”.

And the bacteriocidal or bacteriostatic (E. coli DH5α [3])?
The bacteriocidal or bacteriostatic was “bacteriocidal”.

And the reduction of viability (E. coli DH5α [3]; 6 hours after induction, 1 mM IPTG, LB)?
The reduction of viability was “about 3 logs”.

What about the “effect on colony forming ability” value (E. coli DH5α [4]; 10 μm IPTG) of the same molecule?
Its value is “minimal effect”.

And the anti-proliferative effect (E. coli DH5α [4]; 500 μm IPTG)?
Its anti-proliferative effect is “near maximal”.

What about the “effect on the time of cell death of a 2 fold increase of IPTG” value (E. coli DH5α [4]; 1000 μm IPTG) of the same molecule?
Its value is “little effect”.

And the “growth after induction of the antisense RNA” value (Salmonella typhimurium)?
Its value is “greatly inhibited”.

B2: pJB59: pLEX5BA with a 451 bp EcoRI/BamHI fragment of orf1/ampG in antisense orientation; expresses antisense RNA (SEQ ID NO: 7) (nucleic acid)
antisense: GAAUUCGUGGAUGCUGGUGUCCUGAGACAUAUCAGCGAUGGUAUCGGUCAGCACACUGUUAACCGCAUCGGCGAUAUUUUUGUUGGAGGCCUGGAACGCACCUUCAACGUUGUAGCUGGCACGAUAGUUUUUGGUCAUUUUGUUGCCAUUCUGCGCGGUAGCGAUGAUGGCGAUAUCCGCUUUGGUCGCGAUGUUGUAGCGCACGUUGCCCUGGGACACGUCAGCAUACAGUUGGCUAACGAUGAUUUGCAGAUUAACCGGGCCAUUCGGACCAACCAUGUAACCACGCGCGGUCAUCUGUUUUUCCAGCACUUCUUGCAGCAGGAAACGCAGAUCGCGGGAGGCGGUCAGGGUAACGAUUUGAUUAUCGCGGGUGACUUUUGCCAGCGCCUGAUCGGUACGCUGAUCGGCACCAUUAAUGCUUACGGUGACGCCCAUCAGGCUUGGAUCC
modifications: expressed from plasmid pLEX5BA; Escherichia coli ampG
B2 was tested. Which “inhibition of colony formation” value (E. coli DH5α [1]) did it give?
Its value is “more than 1000 fold”.

What about the “time after induction until significant effect on the increase in cell mass (OD450)” value (E. coli DH5α [2]; LB, 1 mM IPTG) of the same molecule?
Its value is “about 3 hours”.

And the “time after which cell mass stopped increasing (did not decrease)” value (E. coli DH5α [2]; LB, 1 mM IPTG)?
The value was “about 3 hours”.

And the bacteriocidal or bacteriostatic (E. coli DH5α [3])?
The bacteriocidal or bacteriostatic was “bacteriostatic”.

And the “growth and viability when antisense RNA is expressed” value (E. coli DH5α [3]; 1 mM IPTG, LB)?
The value was “growth is inhibited but viability is not reduced”.

And the “growth and viability after IPTG induction” value (JRG58201)?
Its value is “inhibited”.
